As usually defined, the EC50 (read off the curve) is the concentration that produces a half-maximal response. Broadly, the Kd is a measure of binding affinity in units of concentration.

For assay [1], the target named is T1, cynomolgus monkey CD46 (cynomolgus monkey, UniProt A0A2K5WCL8 35-377).
T1 construct: whole, on cells; also called cyno monkey CD46; CHO-cynoCD46
T1 sequence: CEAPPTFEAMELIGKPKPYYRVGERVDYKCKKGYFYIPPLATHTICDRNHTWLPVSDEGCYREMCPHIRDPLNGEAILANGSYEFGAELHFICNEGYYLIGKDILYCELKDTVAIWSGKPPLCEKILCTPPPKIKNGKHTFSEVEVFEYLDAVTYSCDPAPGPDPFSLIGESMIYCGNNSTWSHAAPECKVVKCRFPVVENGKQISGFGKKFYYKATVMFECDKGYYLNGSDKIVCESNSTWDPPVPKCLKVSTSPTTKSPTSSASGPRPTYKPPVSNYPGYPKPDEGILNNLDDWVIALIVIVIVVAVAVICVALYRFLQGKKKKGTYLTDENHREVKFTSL
Nature of the assay: FACS on CHO-cynoCD46 cells, 4 C overnight, MFI against antibody concentration. As to the method: (§1) FIGS. 6. YS5 KD measurement on CHO cells transfected with cynomolgus monkey CD46. YS5 was incubated with CHO-cynoCD46 cells at 4° C. overnight and binding analyzed by FACS.

Assay [2] has as its target T2, recombinant Fc fusion protein composed of the Sushi domain 1 and 2 of human CD46 (human, UniProt P15529 35-159).
T2 construct: domain: Sushi domain 1 and 2; Produced in HEK293 cells, purified by protein A; also called CD46-Fc fusion; recombinant CD46-Fc fusion protein; not shown: Fc part
T2 sequence (looked up): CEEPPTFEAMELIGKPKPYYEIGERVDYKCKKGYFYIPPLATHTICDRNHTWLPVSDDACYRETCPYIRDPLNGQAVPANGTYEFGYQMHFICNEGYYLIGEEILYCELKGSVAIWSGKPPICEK
Nature of the assay: phage and yeast display selection and FACS screening with recombinant CD46-Fc fusion. An excerpt:
To identify novel anti-human CD46 antibodies, a recombinant Fc fusion protein composed of the Sushi domain 1 and 2 of human CD46 was created. As complement elements bind predominantly to domain 3 and 4, the choice of domain 1 and 2 minimize selection of antibodies that could potently interfere with normal complement function. This CD46-Fc fusion was produced and purified from transfected HEK293 cells by protein A affinity chromatography. For human antibody selection, a 5×10⁹ member phagemid display library was created using cDNAs pooled from peripheral blood mononuclear cells of 426 healthy human donors, and the library was selected the recombinant CD46-Fc fusion protein. Following three rounds of selection, binding phagemid were screened by FACS and sequenced. In parallel, an alternatively strategy was employed that involve first selecting the library on live tumor cells followed by transferring the output from round 1 phagemid selection into a yeast surface display vector, and then FACS-based selection using low concentration ligands to enrich high affinity binders to the recombinant CD46-Fc fusion protein. The resulting antibodies bind with high affinity to both live tumor cells and the recombinant human CD46 protein.

Assay [3] addresses T1, cynomolgus monkey CD46. The experiment in a line: FACS on CHO cells transfected with cynomolgus monkey CD46, 4 °C overnight, MFI curve fit. As to the method:
as §1

B1: YS5 (antibody, V domains shown)
VH: QVQLVQSGGGVVQPGRSLRLACAASGLTVNNYAMHWVRQAPGKGLEWVAVISYDGNNKYYADSVKGRFTISRDNSKNTLYLQMNSLRAEDTAVYYCAKGGGYFDLWGRGTLVTVSS
VL: QSVLTQPPSVSGAPGQRVTISCTGSSSNIGAGYDVHWYQQLPGTAPKLLIYGNNNRPSGVPDRFSGSKSGTSASLAITGLQAEDEADYYCSSYTSGTWLFGGGTKLTVL
notes: Human scFv from phage/yeast display, converted into full human IgG1; also called YS5 IgG1; anti-CD46 antibody (YS5)
As to B1, the “EC50 (read off the curve)” value with cynomolgus monkey CD46 [1] was roughly 2 nM. The binding result in assay [2] is reported as “binds”. This molecule also had a Kd with cynomolgus monkey CD46 [3] of 1.95 nM.
